Patent US8143228B2, “Agents capable of downregulating an MSF-A dependent HIF-1α and use thereof in cancer treatment” (Medical Research Fund of Tel Aviv Sourasky Medical Center, priority 2004, dated 2012)

What was measured:
PC-3 cells [1] = test: Soft agar foci assay; assay type: cell-based; conditions: PC-3-MSF-A vs PC-3-Neo cells, 4 weeks, normoxia
Experimental: FIGS. 14a-g are microscopic photographs (FIGS. 14a-f) and a graph depicting the effect of MSF-A over-expression on colony formation and growth (FIG. 14g). PC-3-Neo and PC-3-MSF-A cells were grown for 4 weeks in soft agar under normoxic conditions. Colonies were observed and counted. FIGS. 14a, c, and e—representative colonies from each plate seeded with PC-3-Neo cells; FIGS. 14b, d, and f—representative colonies from each plate seeded with PC-3-MSF-A cells; FIG. 14g—quantitative analysis of colony number from each cell type. Columns=means; bars=SD; n=3.
Soft Agar Foci assay—The assay tests the anchorage-independent growth of the cell in soft agar. Suspensions of PC-3-Neo or PC-3-MSF-A cells in 0.22% soft agar were poured on 35 mm-diameter plate (5000 cells/plate) pre-cast with 0.5% soft agar and were cultured for 4 weeks. Colonies (≧20 cells) were counted.

PC-3 cells [2] = test: Plating efficiency assay; assay type: cell-based; conditions: PC-3-MSF-A cells; PC-3-Neo 16.8%, p<0.001
Experimental: Plating Efficiency assay—PC-3-Neo and PC-3-MSF-A cells were cultured in 100 mm-diameter plate (1000 cells/plate) and incubated to allow colony formation. The cultures were monitored on a daily basis and when colonies were visible (approximately after 2 weeks) cells were fixed and stained with 90% EtOH, 5% Acetic acid, 0.01% Coomassie brilliant blue (Sigma-Aldrich, Saint Louis, Mo.). Plating was done in triplicates. Colonies containing ≧20 cells were counted. Plating efficiency (%) was calculated as number of colonies formed/number of cells plated×100.

PC-3 cells [3] = test: Cell proliferation assay with XTT reagent; assay type: cell-based; conditions: PC-3-MSF-A vs PC-3-Neo cells, normoxia and hypoxia
Experimental: FIG. 13 is a graph depicting the effect of MSF-A over-expression on cell proliferation. PC-3-Neo and PC-3-MSF-A cells were grown under normoxic and hypoxic conditions for the indicated time and then analyzed for proliferation using XTT assay. Proliferation was expressed as increase in % of the initial O.D. measured on the next day of seeding which was considered 100%. Growth media were not changed until the end of the experiment.
Cell proliferation assay with XTT reagent—For cell proliferation assay, PC-3-Neo and PC-3-MSF-A cells were seeded in 96 well-plates (1000 cells/well in 200 μLI) using a 3-bis-(2-methoxy-4-nitro-5 sulfenyl)-(2H)-tetrazolium-5-carboxanilide (XTT) kit (Biological Industries Ltd. Kibbutz Beit Haemek, Israel). Wells filled with media served as a control. On the next day, the cells were cultured either under normoxic or hypoxic conditions. XTT reagent was added at days 0, 2, 4 and 6 following the manufacturer's instructions. The absorbance of the samples was measured using a microplate reader at a wavelength of 450 nm using Elisa reader 680 (Bio-rad, Hercules, Calif.). All experiments were performed in triplicate.

HIF-1α protein = target: T1, HIF-1α protein (Homo sapiens, UniProt Q16665); test: Co-immunoprecipitation / immunoblotting with HIF-1α in transfected HEK 293 cells; assay type: binding; conditions: transient transfection
T1 construct: expressed in transfected cells; host or cells: HEK 293
T1 sequence (Q16665 whole entry): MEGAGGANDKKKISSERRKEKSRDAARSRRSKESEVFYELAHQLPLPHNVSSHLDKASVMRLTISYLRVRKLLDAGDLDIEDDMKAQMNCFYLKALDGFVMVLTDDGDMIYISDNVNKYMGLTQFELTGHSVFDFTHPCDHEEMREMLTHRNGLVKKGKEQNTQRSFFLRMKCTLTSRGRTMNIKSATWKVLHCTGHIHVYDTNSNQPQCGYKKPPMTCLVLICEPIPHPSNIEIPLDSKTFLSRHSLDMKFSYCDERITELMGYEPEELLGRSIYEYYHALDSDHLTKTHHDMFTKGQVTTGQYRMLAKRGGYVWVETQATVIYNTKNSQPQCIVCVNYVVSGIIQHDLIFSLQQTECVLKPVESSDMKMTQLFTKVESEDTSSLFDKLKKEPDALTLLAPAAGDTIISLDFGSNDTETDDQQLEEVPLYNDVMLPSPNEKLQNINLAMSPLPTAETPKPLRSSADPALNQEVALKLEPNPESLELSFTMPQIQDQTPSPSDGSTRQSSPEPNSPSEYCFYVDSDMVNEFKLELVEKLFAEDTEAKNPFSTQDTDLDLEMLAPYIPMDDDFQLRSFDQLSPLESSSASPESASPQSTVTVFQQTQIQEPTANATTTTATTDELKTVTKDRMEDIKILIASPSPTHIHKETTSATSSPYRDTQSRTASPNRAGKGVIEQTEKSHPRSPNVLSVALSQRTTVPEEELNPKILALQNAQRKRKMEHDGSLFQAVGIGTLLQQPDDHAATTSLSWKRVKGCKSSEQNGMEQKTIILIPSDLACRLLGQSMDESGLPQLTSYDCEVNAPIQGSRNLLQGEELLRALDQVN
Experimental: FIGS. 9a-c are Western blot analyses of FLAG (MSF-A; FIGS. 9a and b) and HIF-1α (FIG. 9c) depicting the interaction between HIF-1α and the WT or deleted forms of MSF-A. HEK 293 cells were transiently co-transfected with expression vector encoding Flag-MSF-A (WT; p3xFlag-MSF-A), Flag-ΔG (AG; p3xFlag-ΔG-MSF-A), Flag-ΔN (ΔN; p3xFlag-ΔN-MSF-A) or empty vector (EV; p3xFlag-cmv-25). After 48 hours, the cells were lysed, subjected for immunoprecipitation (IP) using HIF-1α antibody and then immunoblotted (IB) with HIF-1α or Flag antibodies. FIG. 9a—whole cell extracts (WCE) subjected to IB with the Flag antibody (MSF-A); FIG. 9b—IP prepared by the HIF-1α antibody were subjected to IB with the Flag antibody (MSF-A); FIG. 9c—IP prepared by the HIF-1α antibody were subjected to IB with the HIF-1α antibody.
Immunoblotting—Proteins (30-60 μg/lane) from WCEs were resolved by 7.5% SDS-PAGE, electro-blotted to nitrocellulose membranes and incubated with the indicated primary antibodies, followed by horseradish peroxidase-conjugated secondary antiserum (Amersham Biosciences, Piscataway, N.J.). Immunoreactivity was visualized by Amersham enhanced chemiluminescence reagent (Amersham Biosciences, Piscataway, N.J.). For sequential blotting with additional antibodies, the membranes were stripped from the first primary antibody using a restore Western blot stripping buffer (Pierce, Rockford, Ill.) and were re-probed using the second primary antibody as indicated.
Immunoprecipitation—Cells were washed twice with ice-cold PBS, lysed in 20 mM Na-HEPES, pH 7.5, 0.5% Nonidet P-40, 0.1M NaCl, 2 mM EDTA, 10% Glycerol and 2 mM DTT supplemented with protease and phosphatase inhibitors, and were subjected to immunoprecipitation using anti-HIF-1α antibody and protein G-agarose beads (Pierce, Ill.) according to the manufacturer's instructions.
To confirm the interaction between the HIF-1α and the MSF-A proteins, HEK 293 cells were transiently co-transfected with the p3xFlag-MSF-A and the pcDNA3.1-HIF-1α vectors, and were grown for 24 hours under normoxic conditions (i.e., conditions of 20% oxygen), following which whole cell extracts (WCE) were subjected to co-immunoprecipitation (IP) using anti-FLAG or anti-HIF-1α antibodies. Following IP, the proteins were subjected to SDS-PAGE and immunoblotting (IB) using the counterpart antibody. As is shown in FIGS. 3a-d, following transfection with both expression vectors (i.e., pcDNA3.1-HIF-1α and p3xFlag-MSF-A) immunoprecipitates generated using either the anti-HIF-1α antibody or the anti-Flag antibody included the reciprocal proteins, i.e., the Flag-MSF-A or HIF-1α proteins, respectively.

- association with HIF-1α protein (co-immunoprecipitation) (HIF-1α protein): strong association
B1: MSF-A: myeloid/lymphoid leukemia septin-like fusion protein A (SEQ ID NO:3), over-expressed from the p3xFlag-MSF-A vector (protein, listed as Homo sapiens)
chain: MKKSYSGGTRTSSGRLRRLGDSSGPALKRSFEVEEVETPNSTPPRRVQTPLLRATVASSTQKFQDLGVKNSEPSARHVDSLSQRSPKASLRRVELSGPKAAEPVSRRTELSIDISSKQVENAGAIGPSRFGLKRAEVLGHKTPEPAPRRTEITIVKPQESAHRRMEPPASKVPEVPTAPATDAAPKRVEIQMPKPAEAPTAPSPAQTLENSEPAPVSQLQSRLEPKPQPPVAEATPRSQEATEAAPSCVGDMADTPRDAGLKQAPASRNEKAPVDFGYVGIDSILEQMRRKAMKQGFEFNIMVVGQSGLGKSTLINTLFKSKISRKSVQPTSEERIPKTIEIKSITHDIEEKGVRMKLTVIDTPGFGDHINNENCWQPIMKFINDQYEKYLQEEVNINRKKRIPDTRVHCCLYFIPATGHSLRPLDIEFMKRLSKVVNIVPVIAKADTLTLEERVHFKQRITADLLSNGIDVYPQKEFDEDSEDRLVNEKFREMIPFAVVGSDHEYQVNGKRILGRKTKWGTIEVENTTHCEFAYLRDLLIRTHMQNIKDITSSIHFEAYRVKRLNEGSSAMANGVEEKEPEAPEM
modifications: 3xFlag tag
- colony formation in soft agar (PC-3 cells [1]): significantly more colonies
- plating efficiency (PC-3 cells [2]): 49.3%
- proliferation rate (XTT) (PC-3 cells [3]): higher
